Three molecules from publication PMC12287301, “DSK2-mediated degradation of F-box protein LAO1 and class I TCPs modulates the nitrogen starvation response” (EMBO Reports, 2025) can be followed below.

B1: His-TCP21 (natural protein)
chain: not shown
notes: TCP21 (AT5G08330), Arabidopsis thaliana; Cloned into BamHI/SalI-digested pET32a; also called recombinant His-TCP21; pET32a-TCP21; source: E. coli Rosetta (DE3), purified (Ni-NTA agarose)
B2: His-TCP7 (natural protein)
chain: not shown
notes: TCP7 (AT5G23280), Arabidopsis thaliana; Cloned into BamHI/SalI-digested pET32a; also called recombinant His-TCP7; pET32a-TCP7; source: E. coli Rosetta (DE3), purified (Ni-NTA agarose)
B3: GST-DSK2B CT (domain or fragment, Arabidopsis thaliana, UniProt Q9SII8 237-551, looked up)
chain: MRNTDRAMSNIESMPEGFNMLRRMYENVQEPLMNATTMSGNAGNNTGSNPFAALLGNQGVTTQGSDASNNSSTPNAGTGTIPNANPLPNPWGATGGQTTAPGRTNVGGDARSPGLGGLGGLGSLGGLGGLGMLGADSPLGATPDASQLSQLLQNPAISQMMQSVFSNPQYMNQLMSLNPQLRSMLDSNPQLREMMQNPDFLRQFSSPEMMQQMMTLQQSLSQNRNTASQDAGQTGAATGNNGGLDLLMNMFGSLGAGGLSGTNQSNVPPEERYATQLQQLQEMGFYDRAENIRALLATNGNVNAAVERLLGSIGQ
notes: DSK2B (AT2G17200), Arabidopsis thaliana, C-terminus (DSK2BCT); the limits 237 to 552 a.a. are printed for the two-hybrid construct DSK2B-CT of the same name; Cloned into EcoRI-digested pGEX-4T-1; also called pGEX-4T-1-DSK2CT; source: E. coli Rosetta (DE3), purified (GST agarose)

Assay in all cases: pull-down; GST pull-down: GST or GST-DSK2BCT incubated with His-tagged TCP in 50 mM Tris-HCl pH 7.5, 150 mM NaCl, 0.5% Triton X-100, 1 mM PMSF at 4 C for 3 h, then GST beads 1 h; blots anti-GST and anti-His
Common to all, as to details: both partners purified

The assay “GST-DSK2B CT” has as its target B3.
Another assay has as its target T1, His-TCP15 (Arabidopsis thaliana, UniProt Q9C9L2 1-325).
T1 construct: TCP15 (AT1G69690), Arabidopsis thaliana; Cloned into BamHI/SalI-digested pET32a; also called recombinant His-TCP15; pET32a-TCP15; source: E. coli Rosetta (DE3), purified (Ni-NTA agarose)

The target of a further assay is T2, His-TCP14 (Arabidopsis thaliana, UniProt Q93Z00 1-489).
T2 construct: TCP14 (AT3G47620), Arabidopsis thaliana; Cloned into BamHI/SalI-digested pET32a; also called recombinant His-TCP14; pET32a-TCP14; source: E. coli Rosetta (DE3), purified (Ni-NTA agarose)
T2 sequence (Q93Z00 whole entry): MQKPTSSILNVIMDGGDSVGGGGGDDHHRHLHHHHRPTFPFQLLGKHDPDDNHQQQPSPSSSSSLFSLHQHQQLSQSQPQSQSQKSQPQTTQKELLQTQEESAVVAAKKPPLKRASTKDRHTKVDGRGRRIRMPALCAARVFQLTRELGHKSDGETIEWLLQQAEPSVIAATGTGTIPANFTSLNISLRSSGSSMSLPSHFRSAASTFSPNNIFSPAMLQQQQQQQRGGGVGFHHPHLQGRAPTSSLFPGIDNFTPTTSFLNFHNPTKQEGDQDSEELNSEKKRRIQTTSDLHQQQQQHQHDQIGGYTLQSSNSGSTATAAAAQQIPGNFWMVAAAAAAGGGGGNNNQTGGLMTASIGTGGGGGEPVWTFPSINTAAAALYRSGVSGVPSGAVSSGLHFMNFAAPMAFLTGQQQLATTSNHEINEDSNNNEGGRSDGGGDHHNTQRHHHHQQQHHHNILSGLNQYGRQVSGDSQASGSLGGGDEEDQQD

As to B1, the binding result with GST-DSK2B CT is listed as “binds”. On to B2, for which the binding result in the assay with GST-DSK2B CT was “binds”. With B3, the binding result in the assay with His-TCP15 and in the assay with His-TCP14 was “binds” in each case.
